Patent publication US7053044B1, “Artificial peptides having surface activity and the use thereof in the preparation of artificial surfactant” (Chiesi Farmaceutici S.p.A., priority 1999, dated 2006)
Ends that are not written are not given here.

Tests used:
[1] = Peptide secondary structure by circular dichroism (CD) spectroscopy; format: physicochemical
Protocol: Peptide secondary structure was investigated using circular dichroism (CD) spectroscopy (Jasco-720 Jasco, Japan). After solubilisation with triflouroethanol (TFE) spectra were recorded from 260 to 184 nm with a scan speed of 20 nm/min and a resolution of 2 data points/nm. The residual molar ellipticy was calculated and expressed in kdeg×cm^2/dmol. Molar ellipticities at 208 and 222 nm were utilised for estimating the content of helical structure (Barrow, C. J. et al. (1992) J. Mol. Biol. 225, 1075–1093).

[2] = Preparation of peptide/lipid mixtures (attainable lipid concentration); format: physicochemical; details: polypeptide/lipid ratio of 0.03
Protocol: DPPC, PG and PA were all purchased from Sigma Chemical Co. (St Louis, Mo.). The lipids, dissolved in chloroform/methanol 98:2 (v/v), were mixed in the proportions DPPC:PG:PA 68:22:9 (w/w/w) or DPPC/PG 7:3 (w/w). Surfactant preparations were prepared by adding SP-C(LKS) alone or SP-C(LKS) and SP-B, to each of the lipid mixtures, at total polypeptide/lipid weight ratios of 0–0.05. The mixtures were evaporated under nitrogen and resuspended in 150 mmol/l NaCl or in 10 mmol/l Hepes buffer pH 6,9 containing 140 mmol/l NaCl and 2.0 mmol/l CaCl2, at lipid concentrations of 10–80 mg/ml. Repeated freezing and sonication (50 W, 48 kHz) were performed until homogeneous suspensions were achieved. In some cases the final suspensions were incubated at 45° C. for 1 h.

[3] = SDS-PAGE (oligomer formation); format: physicochemical
From the text: The purity of the peptide was checked by sodium-dodecylsulphate (SDS) polyacrylamide gel electrophoresis (PAGE) (Phast-system, Pharmacia, Sweden) and by reversed phase high performance liquid chromatography (HPLC), using a C18 column and a linear gradient of 60% aqueous methanol/0.1% TFA and isopropanol/0.1% TFA (Gustafsson, M. et al. (1997) Biochem. J. 326, 799–806).

[4] = Surface film stability, captive bubble system; format: physicochemical; details: surfactant mixtures, samples containing 5% of peptide
Protocol: In an even more preferred embodiment of the invention, surfactant mixtures containing the peptide in which palmitoyl chains are O-covalently linked to the Ser residues should be used. […] In the samples containing 5% of dipalmitoylated peptide, the γmin was below 1.5 mN/m and the films very stable, as the surface tension increased by less than 0.5 mN/m within 10 min at constant bubble volume.

[5] = Nilsson, G. et al. (1998) Eur. J. Biochem. 255, 116–124; cited from earlier work
[6] = molecular target: the molecule itself; test: SDS-PAGE, self-association (oligomerisation)

FGIPSSPVHLKRLLILKLLLLKILLLKLGALLMGL [SP-C(LKS), SP-C analogue: Val 16–28 replaced with Leu, Lys at 17, 22, 27, Cys 5 and 6 replaced with Ser]
α-helical content ([1]; solubilised in TFE, estimated from the 208 nm and 222 nm minima): approximately 75% | secondary structure on dilution ([1]; stepwise dilution with H2O until 12% TFE, peptide solubilized in neat TFE): remained stable | lipid concentration of peptide/lipid mixture that could be made [2]: 80 mg/mL | SDS-PAGE pattern (oligomerisation) [3]: single band

SP-C(Leu): reference peptide; transmembranous SP-C analogue with all helical Val residues replaced with Leu (Nilsson et al.) (FGIPSSPVLKRLLILLLLLLLILLLILGALLMGL)
γmin (captive bubble system) [4]: approx. 5 mN/m | highest concentration of lipid-peptide mixture that can be prepared / solubilized [5]: ≤ 20 mg/mL | SDS-PAGE pattern (oligomerisation) [3]: forms oligomers

B1: SP-C(LKS) (peptide)
peptide: FGIPSSPVHLKRLLILKLLLLKILLLKLGALLMGL
modifications: ends and bridges not checked
notes: The non-acylated form was run in SDS-PAGE; also called analogue of SP-C
binding result [6]: no binding
